Reference: patent publication US20200277377A1 (WUXI BIOLOGICS SHANGHAI, published 2020)

Assays:
[1] = biological target: T1, hCTLA4_ECD.His point mutant G64 to alanine (human, UniProt P16410 36-161); test: capture ELISA, alanine scan, vs silent alanine substitutions
T1 construct: extracellular domain; alanine-scan mutein, HEK293F supernatant
T1 sequence (looked up): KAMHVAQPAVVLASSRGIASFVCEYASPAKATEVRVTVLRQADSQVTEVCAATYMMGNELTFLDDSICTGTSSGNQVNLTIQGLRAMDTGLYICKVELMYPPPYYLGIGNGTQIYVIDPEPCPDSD
Outline: (§1)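 Secreted His-tagged CTLA4 point muteins in quantified supernatant were captured and probed with HRP anti-His antibody and TMB. Absorbance normalised to the mean of control mutants; epitope residues were assigned with a binding fold-change cutoff of <0.55.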

Murine CTLA-4.ECD-6×His = biological target: T2, Murine CTLA-4.ECD-6×His (mouse, UniProt P09793 36-161); test: ELISA, antibody titrated on coated mouse CTLA-4.ECD-6xHis, OD450 [C) Murine CTLA-4]
T2 construct: extracellular domain; Bought; also called mouse CTLA-4.ECD-6×His; mouse CTLA-4 ECD
Protocol: ELISA was used to test binding of anti-human CTLA-4 antibodies to human, murine and cynomolgus monkey CTLA-4 protein. A 96-well plate was coated with human CTLA-4.ECD-6×His (1.0 μg/mL), cynomoguls monkey CTLA-4.ECD-6×His (0.5 μg/mL) or mouse CTLA-4.ECD-6×His (0.5 μg/mL) at 4° C. for 16-20 hours. After 1 hour blocking with 2% BSA in DBPS, testing antibodies, as well as positive and negative control antibodies were added to the plates and incubated at room temperature for 1 hour. The binding of the antibodies to the plates were detected by HRP-conjugated goat anti-human IgG antibody (1:5000 dilution) with 1 hour incubation. The color was developed by dispensing 100 μL of TMB substrate for 8 mins, and then stopped by 100 μL of 2N HCl.

[2] = biological target: T3, hCTLA4_ECD.His point mutant T72 to alanine (human, UniProt P16410 36-161); test: capture ELISA, alanine scan, vs silent alanine substitutions
T3 construct: extracellular domain; alanine-scan mutein, HEK293F supernatant
T3 sequence (looked up): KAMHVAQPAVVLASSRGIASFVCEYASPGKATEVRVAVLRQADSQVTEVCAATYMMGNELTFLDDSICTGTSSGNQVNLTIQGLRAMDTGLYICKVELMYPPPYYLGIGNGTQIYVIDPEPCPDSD
Outline: as §1

[3] = biological target: T4, hCTLA4_ECD.His point mutant Q76 to alanine (human, UniProt P16410 36-161); test: as above
T4 construct: extracellular domain; alanine-scan mutein, HEK293F supernatant
T4 sequence (looked up): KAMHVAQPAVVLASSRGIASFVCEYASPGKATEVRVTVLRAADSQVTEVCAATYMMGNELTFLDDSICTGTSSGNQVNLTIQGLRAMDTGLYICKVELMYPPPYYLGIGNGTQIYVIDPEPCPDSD
Outline: as §1

[4] = biological target: T5, hCTLA4_ECD.His point mutant L126 to alanine (human, UniProt P16410 36-161); test: as above
T5 construct: extracellular domain; alanine-scan mutein, HEK293F supernatant
T5 sequence (looked up): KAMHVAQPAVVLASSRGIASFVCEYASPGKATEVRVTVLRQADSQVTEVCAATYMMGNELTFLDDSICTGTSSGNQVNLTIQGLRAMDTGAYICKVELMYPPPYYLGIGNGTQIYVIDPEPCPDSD
Outline: as §1

[5] = biological target: T6, hCTLA4_ECD.His point mutant Y127 to alanine (human, UniProt P16410 36-161); test: as above
T6 construct: extracellular domain; alanine-scan mutein, HEK293F supernatant
T6 sequence (looked up): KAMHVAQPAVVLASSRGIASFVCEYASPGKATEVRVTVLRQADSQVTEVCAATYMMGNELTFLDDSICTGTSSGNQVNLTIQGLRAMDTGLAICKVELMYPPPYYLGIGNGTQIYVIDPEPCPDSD
Outline: as §1

[6] = biological target: T7, hCTLA4_ECD.His point mutant V131 to alanine (human, UniProt P16410 36-161); test: as above
T7 construct: extracellular domain; alanine-scan mutein, HEK293F supernatant
T7 sequence (looked up): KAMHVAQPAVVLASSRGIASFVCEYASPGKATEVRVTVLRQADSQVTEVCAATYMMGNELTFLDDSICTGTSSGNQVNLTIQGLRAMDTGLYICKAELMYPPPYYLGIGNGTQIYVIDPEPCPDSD
Outline: as §1

[7] = biological target: T8, hCTLA4_ECD.His point mutant Y139 to alanine (human, UniProt P16410 36-161); test: as above
T8 construct: extracellular domain; alanine-scan mutein, HEK293F supernatant
T8 sequence (looked up): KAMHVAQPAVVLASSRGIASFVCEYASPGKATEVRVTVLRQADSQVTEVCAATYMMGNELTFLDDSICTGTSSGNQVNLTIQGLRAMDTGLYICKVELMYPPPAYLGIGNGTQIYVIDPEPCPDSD
Outline: as §1

[8] = biological target: T9, hCTLA4_ECD.His point mutant L141 to alanine (human, UniProt P16410 36-161); test: as above
T9 construct: extracellular domain; alanine-scan mutein, HEK293F supernatant
T9 sequence (looked up): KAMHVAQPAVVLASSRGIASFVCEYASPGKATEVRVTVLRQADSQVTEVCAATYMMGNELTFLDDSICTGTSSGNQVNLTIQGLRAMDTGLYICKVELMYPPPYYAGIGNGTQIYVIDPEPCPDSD
Outline: as §1

[9] = biological target: T10, hCTLA4_ECD.His point mutant I143 to alanine (human, UniProt P16410 36-161); test: as above
T10 construct: extracellular domain; alanine-scan mutein, HEK293F supernatant
T10 sequence (looked up): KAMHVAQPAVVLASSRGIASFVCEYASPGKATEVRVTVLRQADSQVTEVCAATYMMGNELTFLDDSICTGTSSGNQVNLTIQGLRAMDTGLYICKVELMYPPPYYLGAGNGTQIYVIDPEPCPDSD
Outline: as §1

[10] = biological target: T11, hCTLA4_ECD.His point mutant N145 to alanine (human, UniProt P16410 36-161); test: as above
T11 construct: extracellular domain; alanine-scan mutein, HEK293F supernatant
T11 sequence (looked up): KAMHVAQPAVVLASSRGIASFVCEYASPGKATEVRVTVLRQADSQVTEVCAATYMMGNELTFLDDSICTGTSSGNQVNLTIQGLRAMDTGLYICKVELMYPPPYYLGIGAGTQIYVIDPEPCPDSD
Outline: as §1

B1: W3162_1.154.8-z35-uAb.IgG1K (antibody, V domains shown)
VH: QVQLVQSGAEVKKPGSSVKVSCKASGYTFTNYFMNWVRQAPGQGLEWMGRVDPEQGRADYAEKFKKRVTITADKSTSTAYMELSSLRSEDTAVYYCARRAMDNYGFAYWGQGTLVTVSS
VL: EIVLTQSPDFQSVTPKEKVTITCSANSALSYMYWYQQKPDQSPKLWVHGTSNLASGVPSRFSGSGSGTDFTLTINSLEAEDAATYYCHHWSNTQWTFGGGTKVEIK
notes: Humanized; label says IgG1K
Q: B1 was tested. Which Fold change [1] did it give?
A: 0.543 fold

Q: Does B1 bind (Murine CTLA-4.ECD-6×His)?
A: no binding (tested: about 7 nM)

B2: W3162-1.146.19-z12-uAb.IgG1K (antibody, V domains shown)
VH: QVQLQESGPGLVKPSETLSLTCSVTYHTITSGYDWTWIRKPPGKGMEWIGYISYSGNTNYNPSLKSRVTISRDTSKNQFFLKLSSVTAADTAVYYCASMMVPHYYVMDAWGQGTLVTVSS
VL: DIVMTQTPLSLSVTPGQPASISCRSSQSLLNSDGNTYLYWYLQKPGQSPQLLIYLVSKLGSGVPNRFSGSGSGTDFTLKISRVEAEDVGVYYCVQGTHDPWTFGGGTKVEIK
notes: Humanized; label says IgG1K
Q: What does the source list for B2?
A: Fold change [2]: 0.541 fold; Fold change [3]: 0.2 fold; Fold change [4]: 0.398 fold; Fold change [5]: 0.529 fold; Fold change [6]: 0.504 fold; Fold change [7]: 0.431 fold; Fold change [8]: 0.486 fold; Fold change [9]: 0.264 fold; Fold change [10]: 0.196 fold
